Measurements taken from the supplement of paper PMC7877785.
± gives the uncertainty stated by the source.

Assay: self-splicing fitness, log relative to wild type (ln ratio); higher = more splicing; Tetrahymena group I intron in knt gene, E. coli kanamycin selection, DiMSum; sequences stand for … in CUCUCU…GGAGGGAAAAGUUAUCAGGCAUGCACCUGGUAGCUAGUCUUUAAACCAAUAGAUUGCAUCGGUUUAAAAGGCAAGACCGUCAAAUUGCGGGAAAGGGGUCAACAGCCGUUCAGUACCAAGUCUCAGGGGAAACUUUGAGAUGGCCUUGCAAAGGGUAUGGUAAUAAGCUGACGGACAUGGUCCUAACCACGCAGCCAAGUCCUAAGUCAACAGAUCUUCUGUUGAUAUGGAUGCAGUUCACAGACUAAAUGUCGGUCGGGGAAGAUGUAUUCUUCUCAUAAGAUAUAGUCGGACCUCUCCUUAAUGGGAGCUAGCGGAUGAAGUGAUGCAACACUGGAGCCGCUGGGAACUAAUUUGUAUGCGAAAGUAUAUUGAUUAGUUUUGGAGUACUCGUGGUCG
How it was run: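 Colonies from six replicate transformations of E. coli BL21(DE3) were pooled and amplicon-sequenced on an Illumina HiSeq 2500. The library placed an intron with all eight P1ex-region nucleotides randomised inside the knt kanamycin-resistance gene on pET-22b(+), and cells grew overnight at 37°C or 30°C on LB agar with or without 25 μg/mL kanamycin (plus 100 μg/mL carbenicillin, 50 μM IPTG, 0.2% rhamnose). Fitness is the DiMSum error-weighted combination of wild-type-normalised replicate fold changes, kanamycin versus none.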

Sequence | self-splicing fitness (ln) (37 °C) | self-splicing fitness (ln) (30 °C)
CUACAGCAAUAUUACGGGCC | -3.03 ± 0.47 | –
CUACAGCAAUAUUACGGUUC | -1.23 ± 0.1 | -2.93 ± 0.089
CUACAGCAAUAUUACGGUUU | -1.31 ± 0.11 | -3.8 ± 0.16
CUACAGCAAUAUUACGUAUC | -3.07 ± 0.24 | -2.78 ± 0.19
CUAGAGCAAUAUUACGAAAG | 0.557 ± 0.12 | -0.33 ± 0.092
CUAGAGCAAUAUUACGAACA | -2.05 ± 0.2 | -4.05 ± 0.28
CUAGAGCAAUAUUACGAACC | – | -1.8 ± 0.47
CUAGAGCAAUAUUACGAAGC | -1.45 ± 0.43 | -0.938 ± 0.42
CUAGAGCAAUAUUACGAAUC | -2.07 ± 0.21 | -3.87 ± 0.36
CUAGAGCAAUAUUACGACAU | -2.71 ± 0.043 | -3.918 ± 0.03
CUAGAGCAAUAUUACGACGC | -0.974 ± 0.32 | –
CUAGAGCAAUAUUACGAGCU | -3.37 ± 0.28 | -3.73 ± 0.31
CUAGAGCAAUAUUACGAGGU | -3.24 ± 0.3 | -3.26 ± 0.16
CUAGAGCAAUAUUACGCCGU | -1.99 ± 0.43 | -2.86 ± 0.32
CUAGAGCAAUAUUACGCGGG | 0.316 ± 0.14 | -2.91 ± 0.22
CUAGAGCAAUAUUACGCUCC | – | -2.45 ± 0.42
CUAGAGCAAUAUUACGCUCG | -1.69 ± 0.36 | -3.8 ± 0.46
CUAGAGCAAUAUUACGCUUA | -2.77 ± 0.26 | -3.65 ± 0.3
CUAGAGCAAUAUUACGGACA | -1.96 ± 0.29 | -2.86 ± 0.16
CUAGAGCAAUAUUACGGAUC | -3.06 ± 0.4 | -3.28 ± 0.15
CUAGAGCAAUAUUACGGCCA | – | -2.59 ± 0.49
CUAGAGCAAUAUUACGGCGA | – | -3.28 ± 0.32
CUAGAGCAAUAUUACGGGCA | -2.34 ± 0.36 | –
CUAGAGCAAUAUUACGGUGG | -0.563 ± 0.089 | -0.455 ± 0.06
CUAGAGCAAUAUUACGUACA | -1.64 ± 0.32 | -2.59 ± 0.36
CUAGAGCAAUAUUACGUAUC | -1.7 ± 0.26 | –

Sequence | self-splicing fitness (ln) (37 °C) | self-splicing fitness (ln) (30 °C)
CUAGAGCAAUAUUACGUAUG | 0.333 ± 0.11 | -0.333 ± 0.084
CUAGAGCAAUAUUACGUCCC | -1.71 ± 0.47 | –
CUAGAGCAAUAUUACGUGCA | -2.18 ± 0.19 | -3.88 ± 0.21
CUAGAGCAAUAUUACGUGGA | -1.68 ± 0.18 | -3.21 ± 0.19
CUAGAGCAAUAUUACGUUCU | -2.21 ± 0.22 | -3.79 ± 0.21
CUAUAGCAAUAUUACGAAUA | -1.47 ± 0.22 | -2.99 ± 0.34
CUAUAGCAAUAUUACGACAG | 0.0869 ± 0.11 | 0.0925 ± 0.097
CUAUAGCAAUAUUACGACGA | -0.725 ± 0.13 | -1.82 ± 0.19
CUAUAGCAAUAUUACGACUC | -1.31 ± 0.39 | –
CUAUAGCAAUAUUACGAGCG | 0.29 ± 0.11 | 0.114 ± 0.086
CUAUAGCAAUAUUACGAGGU | -3.28 ± 0.42 | -4.07 ± 0.42
CUAUAGCAAUAUUACGAUUU | -0.748 ± 0.28 | –
CUAUAGCAAUAUUACGCGAU | -1.5 ± 0.12 | -2.31 ± 0.12
CUAUAGCAAUAUUACGCUGG | -2.05 ± 0.32 | -3.36 ± 0.37
CUAUAGCAAUAUUACGGAUU | -2.29 ± 0.24 | -3.43 ± 0.24
CUAUAGCAAUAUUACGGCGA | -0.914 ± 0.47 | –
CUAUAGCAAUAUUACGGGAA | -2.26 ± 0.31 | -2.55 ± 0.32
CUAUAGCAAUAUUACGGGCA | -1.89 ± 0.18 | -3.19 ± 0.26
CUAUAGCAAUAUUACGGGUU | -1.38 ± 0.19 | -3.13 ± 0.23
CUAUAGCAAUAUUACGGUAC | -1.51 ± 0.25 | -3.68 ± 0.28
CUAUAGCAAUAUUACGGUCU | -2.14 ± 0.29 | -4.51 ± 0.36
CUAUAGCAAUAUUACGUAAA | – | -3.63 ± 0.24
CUAUAGCAAUAUUACGUAUG | -0.647 ± 0.099 | -1.52 ± 0.085
CUAUAGCAAUAUUACGUCGA | -2.6 ± 0.38 | -2.18 ± 0.22
CUAUAGCAAUAUUACGUCGU | -2.24 ± 0.34 | –
CUAUAGCAAUAUUACGUGGC | -1.8 ± 0.28 | -2.86 ± 0.24

Sequence | self-splicing fitness (ln) (37 °C) | self-splicing fitness (ln) (30 °C)
CUAUAGCAAUAUUACGUUGA | -3.42 ± 0.35 | -3.67 ± 0.32
CUAUAGCAAUAUUACGUUGC | -2.37 ± 0.32 | -2.61 ± 0.32
CUCAAGCAAUAUUACGAAAG | -0.747 ± 0.13 | -2.12 ± 0.11
CUCAAGCAAUAUUACGACAA | -1.89 ± 0.21 | -2.86 ± 0.23
CUCAAGCAAUAUUACGACGC | -2.18 ± 0.42 | -1.75 ± 0.24
CUCAAGCAAUAUUACGACGG | -1.05 ± 0.13 | -0.942 ± 0.1
CUCAAGCAAUAUUACGAUAA | -1.93 ± 0.12 | -3.78 ± 0.16
CUCAAGCAAUAUUACGAUGC | -2.95 ± 0.17 | -3.9 ± 0.15
CUCAAGCAAUAUUACGAUGU | -1.21 ± 0.13 | -2.6 ± 0.11
CUCAAGCAAUAUUACGCAAG | -0.876 ± 0.27 | –
CUCAAGCAAUAUUACGCCAG | -0.675 ± 0.29 | -3.03 ± 0.28
CUCAAGCAAUAUUACGCUAA | -2.96 ± 0.22 | -3.13 ± 0.2
CUCAAGCAAUAUUACGCUCG | -0.979 ± 0.33 | –
CUCAAGCAAUAUUACGGUAU | -2.08 ± 0.17 | -3.61 ± 0.17
CUCAAGCAAUAUUACGGUGC | -3.19 ± 0.27 | -4.1 ± 0.31
CUCAAGCAAUAUUACGGUGU | -1.31 ± 0.13 | -3.3 ± 0.12
CUCAAGCAAUAUUACGGUUA | -2.81 ± 0.2 | -2.78 ± 0.2
CUCAAGCAAUAUUACGUACC | -2.04 ± 0.23 | -4.45 ± 0.34
CUCAAGCAAUAUUACGUCCG | -1.38 ± 0.13 | -2.08 ± 0.12
CUCAAGCAAUAUUACGUGCC | -2.29 ± 0.17 | -2.96 ± 0.11
CUCAAGCAAUAUUACGUGGC | -2.24 ± 0.14 | -4.37 ± 0.22
CUCAAGCAAUAUUACGUGUC | -1.65 ± 0.1 | -3.37 ± 0.11
CUCAAGCAAUAUUACGUGUG | -1.42 ± 0.072 | -2.73 ± 0.074
CUCAAGCAAUAUUACGUUCA | -1.46 ± 0.14 | -2.07 ± 0.15
CUCAAGCAAUAUUACGUUGA | -2.48 ± 0.2 | -3.13 ± 0.21
CUCCAGCAAUAUUACGACGU | -2.01 ± 0.21 | -3.83 ± 0.21

Sequence | self-splicing fitness (ln) (37 °C) | self-splicing fitness (ln) (30 °C)
CUCCAGCAAUAUUACGAUAU | -2.95 ± 0.47 | -2.46 ± 0.19
CUCCAGCAAUAUUACGAUGU | -2.9 ± 0.21 | -3.28 ± 0.17
CUCCAGCAAUAUUACGCAAA | -2.68 ± 0.26 | -3.21 ± 0.21
CUCCAGCAAUAUUACGCAUA | -2.21 ± 0.29 | –
CUCCAGCAAUAUUACGCAUG | -1.06 ± 0.074 | -2.12 ± 0.08
CUCCAGCAAUAUUACGCCGA | – | -2.27 ± 0.42
CUCCAGCAAUAUUACGGAAA | -1.55 ± 0.12 | -2.25 ± 0.13
CUCCAGCAAUAUUACGGAAC | -2.33 ± 0.21 | -4.55 ± 0.46
CUCCAGCAAUAUUACGGAUG | -1.38 ± 0.14 | -2.46 ± 0.13
CUCCAGCAAUAUUACGGCAG | -1.75 ± 0.15 | -4.58 ± 0.21
CUCCAGCAAUAUUACGGCGC | -2.81 ± 0.27 | -3.37 ± 0.18
CUCCAGCAAUAUUACGGGAA | -0.479 ± 0.093 | -1.92 ± 0.086
CUCCAGCAAUAUUACGGGCA | -2.52 ± 0.27 | –
CUCCAGCAAUAUUACGGUAC | -1.86 ± 0.16 | -2.28 ± 0.12
CUCCAGCAAUAUUACGGUGU | -2.28 ± 0.13 | -4.11 ± 0.15
CUCCAGCAAUAUUACGUGAG | -2.62 ± 0.18 | -3.61 ± 0.15
CUCCAGCAAUAUUACGUGGU | -3.19 ± 0.15 | -3.42 ± 0.12
CUCGAGCAAUAUUACGAAAC | -1.99 ± 0.33 | -3.52 ± 0.33
CUCGAGCAAUAUUACGAAAG | -1.58 ± 0.15 | -2.85 ± 0.14
CUCGAGCAAUAUUACGACAG | -1.42 ± 0.21 | -1.76 ± 0.15
CUCGAGCAAUAUUACGACUC | -2.61 ± 0.24 | -4.16 ± 0.22
CUCGAGCAAUAUUACGAGGG | -1.83 ± 0.35 | -3.45 ± 0.28
CUCGAGCAAUAUUACGAUAC | -2.64 ± 0.36 | –
